# Results taken from IntAct's records for PubMed 23460737.
# B1: Protein THEMIS (Homo sapiens), Q8N1K5-1 (parent)
# chain: MALSLEEFVHSLDLRTLPRVLEIQAGIYLEGSIYEMFGNECCFSTGEVIKITGLKVKKIIAEICEQIEGCESLQPFELPMNFPGLFKIVADKTPYLTMEEITRTIHIGPSRLGHPCFYHQKDIKLENLIIKQGEQIMLNSVEEIDGEIMVSCAVARNHQTHSFNLPLSQEGEFYECEDERIYTLKEIVEWKIPKNRTRTVNLTDFSNKWDSTNPFPKDFYGTLILKPVYEIQGVMKFRKDIIRILPSLDVEVKDITDSYDANWFLQLLSTEDLFEMTSKEFPIVTEVIEAPEGNHLPQSILQPGKTIVIHKKYQASRILASEIRSNFPKRHFLIPTSYKGKFKRRPREFPTAYDLEIAKSEKEPLHVVATKAFHSPHDKLSSVSVGDQFLVHQSETTEVLCEGIKKVVNVLACEKILKKSYEAALLPLYMEGGFVEVIHDKKQYPISELCKQFRLPFNVKVSVRDLSIEEDVLAATPGLQLEEDITDSYLLISDFANPTECWEIPVGRLNMTVQLVSNFSRDAEPFLVRTLVEEITEEQYYMMRRYESSASHPPPRPPKHPSVEETKLTLLTLAEERTVDLPKSPKRHHVDITKKLHPNQAGLDSKVLIGSQNDLVDEEKERSNRGATAIAETFKNEKHQK
# B2: Protein THEMIS (Homo sapiens), Q8N1K5-1 (parent)
# chain: B1 chain
# partner: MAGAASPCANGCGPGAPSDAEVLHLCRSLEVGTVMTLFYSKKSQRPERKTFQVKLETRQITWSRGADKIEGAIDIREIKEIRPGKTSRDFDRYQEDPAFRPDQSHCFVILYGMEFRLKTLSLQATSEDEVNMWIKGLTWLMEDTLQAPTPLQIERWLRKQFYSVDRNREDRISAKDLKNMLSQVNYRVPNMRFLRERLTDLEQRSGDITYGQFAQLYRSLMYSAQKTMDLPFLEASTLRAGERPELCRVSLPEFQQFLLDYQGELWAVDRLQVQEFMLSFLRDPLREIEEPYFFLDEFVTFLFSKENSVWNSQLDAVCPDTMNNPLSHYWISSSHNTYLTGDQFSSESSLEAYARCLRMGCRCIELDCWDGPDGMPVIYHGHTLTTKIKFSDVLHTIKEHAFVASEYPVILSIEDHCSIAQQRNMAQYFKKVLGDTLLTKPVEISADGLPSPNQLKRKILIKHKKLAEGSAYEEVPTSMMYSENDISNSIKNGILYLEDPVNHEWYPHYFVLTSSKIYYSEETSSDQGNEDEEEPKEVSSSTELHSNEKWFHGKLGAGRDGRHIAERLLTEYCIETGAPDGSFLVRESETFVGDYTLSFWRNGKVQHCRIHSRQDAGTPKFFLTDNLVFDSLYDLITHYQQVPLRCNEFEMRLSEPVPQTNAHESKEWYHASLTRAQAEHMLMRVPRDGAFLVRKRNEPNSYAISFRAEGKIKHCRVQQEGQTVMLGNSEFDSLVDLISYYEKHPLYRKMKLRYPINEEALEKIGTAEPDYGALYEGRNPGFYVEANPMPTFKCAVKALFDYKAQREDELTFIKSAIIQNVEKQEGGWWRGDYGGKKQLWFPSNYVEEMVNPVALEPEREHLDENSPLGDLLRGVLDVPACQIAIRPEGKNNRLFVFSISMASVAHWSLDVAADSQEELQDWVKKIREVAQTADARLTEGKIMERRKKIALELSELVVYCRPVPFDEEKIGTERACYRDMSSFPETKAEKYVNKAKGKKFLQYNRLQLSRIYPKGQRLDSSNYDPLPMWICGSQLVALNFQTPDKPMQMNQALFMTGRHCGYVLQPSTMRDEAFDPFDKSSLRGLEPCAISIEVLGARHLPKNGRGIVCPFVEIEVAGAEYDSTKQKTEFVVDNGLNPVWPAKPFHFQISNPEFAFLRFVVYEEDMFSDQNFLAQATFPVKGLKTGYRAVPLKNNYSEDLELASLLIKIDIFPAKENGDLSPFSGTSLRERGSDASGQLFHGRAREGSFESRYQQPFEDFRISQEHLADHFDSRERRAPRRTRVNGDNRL
# B3: Protein THEMIS (Mus musculus), Q8BGW0 (parent)
# chain: MALSLEEFVYSLDLRTLPRVLEIQSGIYFEGSVYEMFGNECCLSTGEVIKITGLKIKKMMAEICEGAIGGCESQKPFELPMNFPGLFKVMADKTPYLSIEEITRTVNIGPSRLGHPCFYHLKDIKLENLIIKQGEPIRFNSVEEINGETLVNCGVVRNHQSHSFTLPLSQEGEFYECEDEHIYTLKEIVEWKIPKNRTRTVKLTDFSNKWDSTNPFPEDFYGTLILKPVYEIQGVLKFQKDIVRILPSLDVEVKDITDSYDANWFLQLLSTDDLFEMTSKEFPVVAEVVEISQGNHLPQSILQREKTIVIHKKYQASRILASEIRSNFPKRHFLIPISYKGKFKRRPREFPTAYDLQIAKSRKETLHVVATKAFHTLHKELSPVSVGDQFLVHHSETTEVVFEGTRKVNVLTCEKVLNKTREDAQLPLYMEGGFVEVIHDKKQYQISELCTQFCWPFNVKVAVRDLSIKDDILAATPGLQLEEDITDSYLLISDFANPEECWEIPMSRLNMTVRLVNGSSLPADAGLLQVRSFVEEITEEQYYMMRRYESSLSHPPPRPPKHPSAEEMKLTLLSLAEERTINLPKSLKSHHVDRPKKLPSDESGQDSRAPVGFQNDVADVERQKSKHGPLQPQAPL
# Variants of: B1
# Settings: with grb2_human GRB2, P62993
row,effect of a mutation on the interaction,Variant
1,disrupting interaction strength,P554A
2,disrupting interaction strength,R556A
3,disrupting interaction strength,K559A
4,disrupting interaction strength,P557A

# Variants of: B1
# Settings: with grb2_human GRB2, P62993
# Remark: another data set of the same source
row,effect of a mutation on the interaction,Variant
1,disrupting interaction strength,Y540F;Y541F

# Variants of: B1
# Settings: with grb2_human GRB2, P62993
# Remark: another data set of the same source
row,effect of a mutation on the interaction,Variant
1,with no effect,Y540F;Y541F
2,with no effect,Y540A;Y541A

# Variants of: B1
# Settings: with grb2_human GRB2, P62993
# Remark: another data set of the same source
row,effect of a mutation on the interaction,Variant
1,with no effect,P582A;P585A
2,disrupting interaction strength,P555A;P558A

# Variants of: B1
# Settings: with grb2_human GRB2, P62993
# Remark: another data set of the same source
row,effect of a mutation on the interaction,Variant
1,disrupting interaction strength,P555A;P558A

# Variants of: B2
# Settings: with plcg1_human PLCG1, P19174
row,effect of a mutation on the interaction,Variant
1,decreasing interaction strength,P555A;P558A

# Variants of: B3
# Settings: with grb2_human GRB2, P62993
row,effect of a mutation on the interaction,Variant
1,disrupting interaction strength,P557A;P560A
